Test results reported in PMC8621594, “Physicochemical and Biological Characterization of rhC1INH Expressed in CHO Cells” (Pharmaceuticals, 2021).
Values belong to the binder of their own block, whether it stands above or below them.

How the values were obtained:
human C1s = human C1s (human); assay: cell-based or functional assay
[1] = target: T1, blood coagulation factor XIIa (human, UniProt P00748 20-615); assay: BLI; Octet QKe; each protease diluted to 10 ug/mL in 10 mM sodium acetate pH 6.0 and covalently immobilised on amino reactive sensors (AR2G); C1 inhibitor at 11, 5.5 and 2.8 uM in triplicates; 24 °C, 250 rpm; only the association rate constant calculated because complex formation is irreversible; conditions: both partners purified
T1 construct: also called FXIIa; source: bought: BioVision (named for the chromogenic assay)
T1 sequence (looked up): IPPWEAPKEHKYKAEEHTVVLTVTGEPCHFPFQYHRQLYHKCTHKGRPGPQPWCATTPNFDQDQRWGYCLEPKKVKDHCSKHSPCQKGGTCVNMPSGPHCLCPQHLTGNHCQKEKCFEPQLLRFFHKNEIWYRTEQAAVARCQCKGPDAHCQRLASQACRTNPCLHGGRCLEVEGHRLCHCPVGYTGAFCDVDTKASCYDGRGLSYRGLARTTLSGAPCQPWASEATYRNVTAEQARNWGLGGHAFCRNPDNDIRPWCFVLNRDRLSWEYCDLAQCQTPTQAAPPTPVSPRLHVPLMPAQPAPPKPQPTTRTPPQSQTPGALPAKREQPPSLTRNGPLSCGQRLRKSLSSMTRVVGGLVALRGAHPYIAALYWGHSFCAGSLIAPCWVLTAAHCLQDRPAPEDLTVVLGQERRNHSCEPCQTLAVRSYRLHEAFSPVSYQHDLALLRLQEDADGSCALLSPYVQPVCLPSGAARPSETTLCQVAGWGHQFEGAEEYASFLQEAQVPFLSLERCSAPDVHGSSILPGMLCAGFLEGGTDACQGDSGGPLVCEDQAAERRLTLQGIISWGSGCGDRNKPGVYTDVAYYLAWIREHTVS

[2] = target: T1, blood coagulation factor XIIa; assay: cell-based or functional assay

IC50 of the inhibition of human serum complement (lysis of chicken erythrocytes), Ruconest® 0.0076 to 15.6 IU/mL; printed as activity against human C1-esterase in the blood serum (human C1s): 1.66 IU/mL
B1: Ruconest^® (conestat alfa), human recombinant C1 inhibitor purified from the milk of transgenic rabbits (natural protein, UniProt P05155 23-500, looked up)
chain: NPNATSSSSQDPESLQDRGEGKVATTVISKMLFVEPILEVSSLPTTNSTTNSATKITANTTDEPTTQPTTEPTTQPTIQPTQPTTQLPTDSPTQPTTGSFCPGPVTLCSDLESHSTEAVLGDALVDFSLKLYHAFSAMKKVETNMAFSPFSIASLLTQVLLGAGENTKTNLESILSYPKDFTCVHQALKGFTTKGVTSVSQIFHSPDLAIRDTFVNASRTLYSSSPRVLSNNSDANLELINTWVAKNTNNKISRLLDSLPSDTRLVLLNAIYLSAKWKTTFDPKKTRMEPFHFKNSVIKVPMMNSKKYPVAHFIDQTLKAKVGQLQLSHNLSLVILVPQNLKHRLEDMEQALSPSVFKAIMEKLEMSKFQPTLLTLPRIKVTTSQDMLSIMEKLEFFDFSYDLNLCGLTEDPDLQVSAMQHQTVLELTETGVEAAAASAISVARTLLVFEVQQPFLFVLWDQQHKFPVFMGRVYDPRA
modifications: glycosylated; 8.0 ± 0.6 mol Neu5Ac/mol protein

kon [1]: 3260 M⁻¹ s⁻¹
inhibitory activity toward factor XIIa, chromogenic substrate S-2302, inhibitor 18 to 0.14 µM, relative to Berinert® (100%) [2]: 115%
B2: recombinant human C1 esterase inhibitor (rhC1INH) from Chinese hamster ovary (CHO) cells (natural protein, UniProt P05155 23-500, looked up)
chain: B1 chain
modifications: heavily glycosylated: six occupied N- and more than 12 O- sites of glycosylation; about 20 mol Neu5Ac/mol protein
notes: mass of the totally deglycosylated protein 52,846 Da (theoretical 52,849 Da); By LC-MS 71% of the deglycosylated product is the full structure; source: genetically engineered CHO cells, purified
